Measured values published in patent US20230049152A1 (Genentech, published 2023).
Numbering of substitutions follows the chain as printed.

T1: human CCR3 (human, UniProt P51677 1-355)
T1 construct: whole, on cells; transiently expressed on HEK293 cells
T1 sequence (looked up): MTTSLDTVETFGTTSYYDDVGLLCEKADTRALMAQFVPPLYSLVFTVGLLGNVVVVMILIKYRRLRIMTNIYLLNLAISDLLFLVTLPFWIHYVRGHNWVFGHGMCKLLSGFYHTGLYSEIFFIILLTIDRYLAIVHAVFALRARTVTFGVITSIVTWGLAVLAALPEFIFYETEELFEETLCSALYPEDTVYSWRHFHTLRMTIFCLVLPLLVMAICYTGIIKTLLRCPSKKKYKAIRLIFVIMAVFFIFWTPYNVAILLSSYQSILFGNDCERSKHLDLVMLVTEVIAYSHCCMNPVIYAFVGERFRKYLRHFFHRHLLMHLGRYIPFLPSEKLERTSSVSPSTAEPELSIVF

T2: human CCR4 (human, UniProt P51679 1-360)
T2 construct: whole, on cells; transiently expressed on HEK293 cells
T2 sequence (looked up): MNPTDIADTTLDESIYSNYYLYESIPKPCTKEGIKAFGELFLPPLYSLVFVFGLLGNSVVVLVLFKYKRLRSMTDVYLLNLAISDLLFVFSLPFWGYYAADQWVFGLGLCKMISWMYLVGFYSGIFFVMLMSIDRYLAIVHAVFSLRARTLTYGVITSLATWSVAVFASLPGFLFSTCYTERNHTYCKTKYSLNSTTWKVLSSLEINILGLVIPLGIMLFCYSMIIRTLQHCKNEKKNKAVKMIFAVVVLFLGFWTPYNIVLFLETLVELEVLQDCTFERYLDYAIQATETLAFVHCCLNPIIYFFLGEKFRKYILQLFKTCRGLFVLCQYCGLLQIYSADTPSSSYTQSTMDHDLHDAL

B1: hu.Ab4.H1L1 (antibody, human IgG1, kappa)
heavy: not shown
light: DYQMTQSPSSLSASVGDRVTITCQASQSISSYLSWYQQKPGKRPKLLIYKASTLASGVPSRFSGSGSGTDFTLTISSLQPEDFATYYCQQGYTSSNIDNIFGGGTKVEIKRTVAAPSVFIFPPSDEQLKSGTASVVCLLNNFYPREAKVQWKVDNALQSGNSQESVTEQDSKDSTYSLSSTLTLSKADYEKHKVYACEVTHQGLSSPVTKSFNRGEC
notes: also called hu.Ab4.H1Ll
B2: hu.Ab4.H12L3 (antibody, human IgG1, kappa)
heavy: not shown
light: B1 light with R43A
notes: fucosylated human IgG1; also called huCCR8-Ab4.H12L3.hIgG1; Ab4 variant
B3: hu.Ab5.H1L1 (antibody, human IgG1, kappa)
heavy: not shown
light: DIQVTQSPSSLSASVGDRVTITCQASENIANALAWYQQKPGKPPKFLIYGASNLASGVPSRFSGSGSGTDFTFTISSLQPEDIATYYCQQAYYGNSFVEGTFGGGTKVEIKRTVAAPSVFIFPPSDEQLKSGTASVVCLLNNFYPREAKVQWKVDNALQSGNSQESVTEQDSKDSTYSLSSTLTLSKADYEKHKVYACEVTHQGLSSPVTKSFNRGEC
B4: hu.Ab5.H13L1 (antibody, human IgG1, kappa)
heavy: not shown
light: B3 light
notes: fucosylated human IgG1; also called Ab5 variant

How the values were obtained:
[1] = biological target: T3, human CCR5 (human, UniProt P51681 1-352); test: flow cytometry, HEK293 with N-term FLAG-tagged human CCR5
T3 construct: whole, on cells; transiently expressed on HEK293 cells
Source text: (§1) FIGS. 4A-4F depicts the binding data of hu.Ab3.H1L1 (FIG. 4A), hu.Ab4.H1L1 (FIG. 4B), and hu.Ab5.H1L1 (FIG. 4C), as well as the commercial anti-CCR8 mAbs murine anti-human CCR8 mAb 433H (BD Biosciences) (FIG. 4D), and murine anti-human CCR8 mAb L263G8 (Biolegend) (FIG. 4E), and the humanized anti-human Yoshida anti-CCR8 mAb (FIG. 4F), to HEK293 cells that were transiently transfected with N-term FLAG-tagged plasmids encoding for human GPCRs (CCR2, CCR3, CCR4, CCR5, CCR8, CXCR4, ACKR2, and ACKR4), hCCR8 constructs, or with a mock construct using transIT X2 (reagent:DNA=3:1).
(§2) To confirm the selectivity to CCR8, the binding of hu.Ab3.H1L1, hu.Ab4.H1L1, and hu.Ab5.H1L1, as well as the Yoshida humanized anti-human CCR8, murine anti-human CCR8 mAb L263G8 (Biolegend, Commercial Ab) and murine anti-human CCR8 mAb 433H (BD Biosciences, Commercial Ab), were characterized by flow cytometry on HEK293 cells that were transiently transfected with plasmids encoding for FLAG-tagged other related human GPCRs (CCR2-5, CXCR4, ACKR2, and ACKR4). Cell surface expression of each GPCR was confirmed by staining with an anti-FLAG antibody control. […]

[2] = biological target: T1, human CCR3; test: flow cytometry, HEK293 with N-term FLAG-tagged human CCR3
Source text: as §1, §2

[3] = biological target: T4, cyno CCR8 (cynomolgus monkey, UniProt O97665 1-356 (rhesus entry)); test: flow cytometry on human and cyno CCR8 CHO cells
T4 construct: also called cynomolgus monkey CCR8

[4] = biological target: T4, cyno CCR8; test: radioligand competition, 125I-labelled IgG versus unlabelled IgG on CHO cells stably expressing cyno CCR8
Description: (§3) Cell-based affinity measurements were performed using radiolabeled IgGs and CHO cell lines stably expressing human or cyno CCR8 for hu.Ab5.H13L1 and hu.Ab4.H12L3.
(§4) Briefly, stable CHO cells expressing human or cyno CCR8 were seeded in cold binding buffer (Opti-MEM+2% FBS+50 mM HEPES, pH 7.2+0.1% Sodium Azide) at 50,000 cells per well. A fixed concentration of ¹²⁵I-anti-CCR8 radiolabeled using the NEX244 Iodogen method (Perkin Elmer) was mixed with serially diluted anti-CCR8 antibodies starting at 20 nM or 50 nM. The antibody mixture was added to the cells and incubated at room temperature for 12 hours under gentle agitation. The cells and antibodies were then transferred to Millipore multiscreen filter plates. The filter plates were washed 4 times with 250 μL of cold binding buffer and dried for at least 30 minutes and the filters were punched into 5 mL polystyrene tubes. The radioactivity was measured using a Perkin Elmer Wallac Wizard 2470 Gamma Counter set at 1 count per minute with 0.8 counting efficiency. The data were fitted using the heterologous one site-fit Ki competitive binding model in GraphPad Prism.

[5] = biological target: T5, human CCR8 (human, UniProt P51685 1-355); test: radioligand competition, 125I-labelled IgG versus unlabelled IgG on CHO cells stably expressing human CCR8
T5 construct: the assay field says which; also called hCCR8; huCCR8
Description: as §3, §4

[6] = biological target: T2, human CCR4; test: flow cytometry, HEK293 with N-term FLAG-tagged human CCR4, procedure of FIG. 4
Source text: (§5) To confirm the selectivity to CCR8, the binding of hu.Ab3.H1L1, hu.Ab4.H1L1, and hu.Ab5.H1L1, as well as the Yoshida humanized anti-human CCR8, murine anti-human CCR8 mAb L263G8 (Biolegend, Commercial Ab) and murine anti-human CCR8 mAb 433H (BD Biosciences, Commercial Ab), were characterized by flow cytometry on HEK293 cells that were transiently transfected with plasmids encoding for FLAG-tagged other related human GPCRs (CCR2-5, CXCR4, ACKR2, and ACKR4). Cell surface expression of each GPCR was confirmed by staining with an anti-FLAG antibody control. In particular, HEK293 cells were transfected with N-term FLAG-tagged human CCR2, CCR3, CCR4, CCR5, CXCR4, ACKR2, ACKR4, hCCR8 constructs, or with a Mock construct using transIT X2 (reagent:DNA=3:1) for 24 hours, and surface stained with various anti-hCCR8 monoclonal antibodies at 5 ug/ml, or rabbit anti-Flag pAb (Sigma) followed by AF647-anti-hIgG or AF647-anti-RbIgG respectively. Antibodies hu.Ab4.H1L1, and hu.Ab5.H1L1, only stained the hCCR8-containing cells, confirming their specificity to hCCR8. […] Thus, the CCR8 selective hu.Ab4.H1L1 and hu.Ab5.H1L1 antibodies with the best ADCC activities were carried forward.
(§6) To reconfirm that the Ab4 and Ab5 variants remained selective to CCR8 compared to the corresponding HIL1 variants, binding was analyzed by flow cytometry following the procedure as described for FIG. 4A and FIG. 4B. […]

[7] = biological target: T3, human CCR5; test: flow cytometry, HEK293 with N-term FLAG-tagged human CCR5, procedure of FIG. 4
Source text: as §5, §6

[8] = biological target: T4, cyno CCR8; test: radioligand competition on CHO cells stably expressing cyno CCR8: fixed 125I-anti-CCR8 against serially diluted unlabelled antibody
Description: as §3, §4

T3 sequence (P51681 whole entry): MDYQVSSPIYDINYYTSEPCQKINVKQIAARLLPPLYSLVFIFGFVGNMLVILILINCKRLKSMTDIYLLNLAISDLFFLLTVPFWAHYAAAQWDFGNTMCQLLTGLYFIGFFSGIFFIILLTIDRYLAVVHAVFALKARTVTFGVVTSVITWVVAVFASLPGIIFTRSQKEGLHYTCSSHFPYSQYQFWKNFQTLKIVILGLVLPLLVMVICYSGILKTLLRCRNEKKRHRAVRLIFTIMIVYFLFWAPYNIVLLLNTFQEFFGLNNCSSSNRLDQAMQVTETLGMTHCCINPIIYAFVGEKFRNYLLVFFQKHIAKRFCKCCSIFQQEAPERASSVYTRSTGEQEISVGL
T4 sequence (O97665 other isoform, or with tags, fused parts or gaps): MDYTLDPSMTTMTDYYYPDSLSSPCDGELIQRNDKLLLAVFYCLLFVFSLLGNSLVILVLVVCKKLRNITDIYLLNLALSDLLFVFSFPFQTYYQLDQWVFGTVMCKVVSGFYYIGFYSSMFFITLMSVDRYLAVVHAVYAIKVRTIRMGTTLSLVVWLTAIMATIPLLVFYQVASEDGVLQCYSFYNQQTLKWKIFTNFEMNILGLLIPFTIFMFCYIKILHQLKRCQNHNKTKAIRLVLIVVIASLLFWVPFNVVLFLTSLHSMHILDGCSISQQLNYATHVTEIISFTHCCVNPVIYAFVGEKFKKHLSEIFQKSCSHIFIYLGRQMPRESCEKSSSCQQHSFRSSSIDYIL

Row | binding result [1] | binding result [2] | binding result [3] | Kd [4] [nM] | Kd [5] [nM] | binding result [6] | binding result [7] | IC50 (read off the curve) [8] [nM] | Binder
1 | no binding (tested: 5 ug/ml) | no binding (tested: 5 ug/ml) | binds |  |  |  |  |  | B1
2 |  |  |  | 0.0243 | 0.0284 | no binding (tested: 5 ug/ml) | no binding (tested: 5 ug/ml) | ~0.1 | B2
3 | no binding (tested: 5 ug/ml) | no binding (tested: 5 ug/ml) | binds |  |  |  |  |  | B3
4 |  |  |  | 0.0034 | 0.004 | no binding (tested: 5 ug/ml) | no binding (tested: 5 ug/ml) | ~0.05 | B4
